Reference: patent EP3466970A1 (Orum Therapeutics Inc., dated 2019)

Target: T1, mCherry (red fluorescence) H-RAS G12V expressed in NIH3T3 cells (UniProt P01112 1-186, limits assumed)
T1 construct: Intracellular target at the inner cell membrane; also called intracellular H-RAS G12V mutants
Test: confocal microscopy, colocalisation in NIH3T3 cells expressing mCherry H-RAS G12V

B1: cytosol-penetrating antibody (cytotransmab) TMab4 (antibody, V domains shown)
VH: EVQLVESGGGLVQPGGSLRLSCAASGYTFTSYVMHWVRQAPGKGLEWVSAINPYNDGNYYADSVKGRFTISRDNSRKTLYLQMNSLRAEDTAVYYCARGAYKRGYAMDYWGQGTTVTVSS
VL: DLVMTQSPSSLSASVGDRVTITCKSSQSLFNSRTRKNYLAWYQQKPGKAPKLLIYWASTRESGVPSRFSGSGSGTDFTLTISSLQPEDFATYYCQQYYYHMYTFGQGTKVEIKR
notes: Intact IgG-format monoclonal antibody; Used as negative control in the RAS assays; also called CT
  binding result: no binding (tested: 2 µM)
